{"source": "paper PMC11109203", "about": "(2024)", "binders": {"B1": {"name": "FITC labeled Clr3 (enzyme)", "chain": "MLASNSDGASTSVKPSDDAVNTVTPWSILLTNNKPMSGSENTLNNESHEMSQILKKSGLCYDPRMRFHATLSEVDDHPEDPRRVLRVFEAIKKAGYVSNVPSPSDVFLRIPAREATLEELLQVHSQEMYDRVTNTEKMSHEDLANLEKISDSLYYNNESAFCARLACGSAIETCTAVVTGQVKNAFAVVRPPGHHAEPHKPGGFCLFNNVSVTARSMLQRFPDKIKRVLIVDWDIHHGNGTQMAFYDDPNVLYVSLHRYENGRFYPGTNYGCAENCGEGPGLGRTVNIPWSCAGMGDGDYIYAFQRVVMPVAYEFDPDLVIVSCGFDAAAGDHIGQFLLTPAAYAHMTQMLMGLADGKVFISLEGGYNLDSISTSALAVAQSLLGIPPGRLHTTYACPQAVATINHVTKIQSQYWRCMRPKHFDANPKDAHVDRLHDVIRTYQAKKLFEDWKITNMPILRDSVSNVFNNQVLCSSNFFQKDNLLVIVHESPRVLGNGTSETNVLNLNDSLLVDPVSLYVEWAMQQDWGLIDINIPEVVTDGENAPVDILSEVKELCLYVWDNYVELSISKNIFFIGGGKAVHGLVNLASSRNVSDRVKCMVNFLGTEPLVGLKTASEEDLPTWYYRHSLVFVSSSNECWKKAKRAKRRYGRLMQSEHTETSDMMEQHYRAVTQYLLHLLQKARPTSQ", "modifications": "FITC label"}}, "key": {"H2AB with H2B Y42R": {"target": "H2AB with H2B Y42R (S. pombe, UniProt P04913 32-126; P04909 15-108, Y42R)", "assay": "ITC"}, "H2AB with H2A R79E": {"target": "H2AB with H2A R79E (S. pombe, UniProt P04913 32-126; P04909 15-108, R79E)", "assay": "ITC"}, "[1]": {"target": "S. pombe H2AB fusion protein (H2B_(32-126)-H2A_(15-108)) (S. pombe, UniProt P04913 32-126; P04909 15-108)", "assay": "ITC"}, "FITC labeled Clr3": {"target": "B1", "assay": "MST"}, "[2]": {"target": "Sad1_(1-169)-H2AB complex (S. pombe, UniProt Q09825 1-169; P04913 32-126; P04909 15-108)", "assay": "MST; mixture of Sad1 and H2AB"}, "Sad1_(1-169)-5R": {"target": "Sad1_(1-169)-5R (S. pombe, UniProt Q09825 1-169, D114R | E117R | F118R | E121R | E122R)", "assay": "MST; mixture of Sad1-5R and H2AB"}}, "data": [{"binder": "Sad1_(60-169) (domain or fragment) ESITPKQRFPAPNFEQAYHSNIRYEQEESDNEEFENVVKNGHEASTNVFYESDGDDEEFVNEEYENSIDEESDDEGYSLNEDTTATNASFRYPMNQRSTRKSQFYSSKFK", "values": [{"measurement": "Kd", "setting": "H2AB with H2B Y42R", "result": 44.8, "unit": "µM"}, {"measurement": "Kd", "setting": "H2AB with H2A R79E", "result": 90.1, "unit": "µM"}, {"measurement": "Kd", "setting": "[1]", "result": 9.1, "unit": "µM"}]}, {"binder": "Sad1_(1-169) (domain or fragment) MFTNTPVGGKRERQNGAHPAWSTLGANSAQIHQNTADLASKMHKLRYTKIRSPPTRVSIESITPKQRFPAPNFEQAYHSNIRYEQEESDNEEFENVVKNGHEASTNVFYESDGDDEEFVNEEYENSIDEESDDEGYSLNEDTTATNASFRYPMNQRSTRKSQFYSSKFK", "values": [{"measurement": "Kd", "setting": "FITC labeled Clr3", "result": 42.9, "unit": "µM"}]}, {"binder": "B1", "values": [{"measurement": "Kd", "setting": "[2]", "result": 10.3, "unit": "µM"}, {"measurement": "Kd", "setting": "Sad1_(1-169)-5R", "result": 47.2, "unit": "µM"}]}, {"binder": "Sad1_(60-169) with charge-reverse mutations of D114 and E117 (domain or fragment) ESITPKQRFPAPNFEQAYHSNIRYEQEESDNEEFENVVKNGHEASTNVFYESDGRDERFVNEEYENSIDEESDDEGYSLNEDTTATNASFRYPMNQRSTRKSQFYSSKFK", "values": [{"measurement": "Kd", "setting": "[1]", "result": 73.5, "unit": "µM"}]}, {"binder": "Sad1_(60-169) F118R (domain or fragment) ESITPKQRFPAPNFEQAYHSNIRYEQEESDNEEFENVVKNGHEASTNVFYESDGDDEERVNEEYENSIDEESDDEGYSLNEDTTATNASFRYPMNQRSTRKSQFYSSKFK", "values": [{"measurement": "Kd", "setting": "[1]", "result": "> 200", "unit": "µM"}]}]}
